Measured values: publication PMC2688732

Target: C-reactive protein (CRP) (human) (UniProt P02741)
Assay: SPR

Sequence of UniProt P02741 (P02741 19-224): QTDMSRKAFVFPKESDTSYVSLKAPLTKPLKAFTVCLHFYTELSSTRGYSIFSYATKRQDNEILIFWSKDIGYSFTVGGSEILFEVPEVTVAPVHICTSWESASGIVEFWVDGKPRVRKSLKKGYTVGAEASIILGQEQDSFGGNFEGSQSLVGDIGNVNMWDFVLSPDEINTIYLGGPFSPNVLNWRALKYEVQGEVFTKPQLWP

Kd: 1.9 µM
Substance: extracellular domain of FcγRIIa (from UniProt P12318 34-204) (receptor)
